# According to the supplement of paper PMC10266784:
# B1: library; numbered along this chain (parent)
# chain: MAAAAAAAAEQQSSNGPVKKSMREKAVERRSVNKEHNSNFKAGYIPIDEDRLHKTGLRGRKGNLAICVIILLFILAVINLIITLVIWAVIRIGPNGCDSMEFHESGLLRFKQVSDMGVIHPLYKSTVGGRRNENLVITGNNQPIVFQQGTTKLSVENNKTSITSDIGMQFFDPRTQNILFSTDYETHEFHLPSGVKSLNVQKASTERITSNATSDLNIKVDGRAIVRGNEGVFIMGKTIEFHMGGNMELKAENSIILNGSVMVSTTRLPSSSSGDQLGSGDWVRYKLCMCADGTLFKVQVTSQNMGCQISDNPCGNTH
# Variants of: B1
# Assay: SGCB cell-surface expression functional score (HA stain, bin4 vs bin1, normalised to synonymous) (log10 ratio); higher = more cell-surface SGCB (functional)
# Experimental: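 Deep mutational scan of full-length human SGCB (YFP-SGCB-HA, NNN codon sublibraries A-F) delivered by lentivirus at low MOI into ADG-HEK293 cells stably expressing SGCA, SGCD and SGCG. YFP-positive cells were stained for surface HA on unpermeabilized cells and FACS-sorted into bins. The functional score is log10(frequency in high bin 4 / frequency in low bin 1), normalised per chunk so that synonymous variants have mean 0 and SD 0.5. Scores are the median over codons and over duplicate biological replicates; scores below -0.5 are called non-functional. Scale: negative means deleterious.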
row,Variant,SGCB cell-surface expression functional score (log10)
1,R267Q,-0.244
2,T294I,-0.04
3,L108K,-1.85
4,Y44V,0.64
5,Q201N,-0.7
6,S14H,0.09
7,K286L,-0.42
8,N316F,0.15
9,G315I,-0.24
10,L57E,0.04
11,T182I,-1
12,G231C,-0.5
13,E35A,0.3
14,A88D,0.41
15,A42G,0.22
16,S125Y,-0.79
17,T160D,-1.29
18,F233I,0.99
19,F241W,1.2
20,H53Y,0.27
21,N246K,-0.01
22,M243P,0.21
23,I66M,0.3
24,N141C,0.03

row,Variant,SGCB cell-surface expression functional score (log10)
1,N33K,0.24
2,R58A,0.08
3,L257M,0
4,Q142N,-0.43
5,G293T,0.13
6,S204F,-0.03
7,K196N,-0.02
8,I74M,-0.6
9,T317L,-0.33
10,G231F,-0.12
11,G245M,1.44
12,R284F,-0.51
13,I90P,-1.1
14,D281K,0.25
15,N177T,0.39
16,Q147E,0.33
17,N217P,-1.08
18,Y123L,0.02
19,P121D,-0.76
20,C314H,-0.18
21,S270D,0.32
22,G167I,-2.1
23,K34D,0.26
24,I78T,-0.02

row,Variant,SGCB cell-surface expression functional score (log10)
1,N15F,0.28
2,E104Y,0.03
3,G231L,-0.37
4,R91D,-1.32
5,M116W,-1.47
6,G167M,-1.61
7,V145H,-0.24
8,T266G,1.23
9,N79Q,0.29
10,S271F,0.35
11,L57D,-0.4
12,I234W,0.32
13,N229I,0.92
14,N158R,-0.6
15,N258E,0
16,E230W,0.47
17,D98L,0.1
18,D50R,0.28
19,S114I,0.12
20,N316R,0.15
21,S271D,-0.12
22,V226P,-0.81
23,L179S,-1.32
24,T163V,0.25

row,Variant,SGCB cell-surface expression functional score (log10)
1,D172Y,-0.12
2,N258I,-0.1
3,L75H,0.2
4,V155S,-1.06
5,T163R,-0.05
6,V118Q,-0.24
7,G222N,1.22
8,A76T,-0.35
9,A9S,0.12
10,D221S,0.59
11,P94V,-0.24
12,L257T,-0.91
13,E35Q,-0.06
14,N79L,-0.15
15,D172V,0.26
16,P17A,0.2
17,L84R,0.08
18,S14L,0.1
19,S273Y,0.11
20,T83P,-0.3
21,A88N,-0.37
22,N141H,-0.24
23,T163H,-0.2
24,G96T,-1.72

row,Variant,SGCB cell-surface expression functional score (log10)
1,D165Y,-0.38
2,T205A,-0.17
3,R267H,0.05
4,C314I,-0.11
5,G244R,0.41
6,I178K,-0.57
7,M100I,-0.14
8,V85K,0.01
9,M116Y,-1.63
10,G59K,0.12
11,D221K,0.13
12,N253D,0.58
13,S273D,-0.07
14,K152D,-0.66
15,C288N,-0.51
16,I90L,0.26
17,E28Q,0
18,G278L,-0.05
19,T209I,-0.34
20,T182P,-1.25
21,I137E,-0.97
22,M247E,-0.44
23,S161Q,0.14
24,I166Q,-0.21

row,Variant,SGCB cell-surface expression functional score (log10)
1,L268P,-0.02
2,A8N,0.12
3,V232C,0.7
4,C288I,-0.55
5,Q148R,0.02
6,L122A,-0.03
7,V300Q,-1.07
8,G244M,1.17
9,A26Q,0.19
10,R23S,-0.16
11,G259N,-0.51
12,V113C,-0.61
13,R267D,-0.54
14,V118W,0.32
15,Y285W,0.09
16,L75D,-0.31
17,T126E,0.37
18,H187K,-0.37
19,S154D,0.2
20,N246A,0.82
21,E185G,-0.26
22,G56S,0.21
23,D48N,0.13
24,Q276R,-0.17

row,Variant,SGCB cell-surface expression functional score (log10)
1,V32N,0.67
2,A88R,-0.43
3,K219I,0.23
4,G117H,-0.9
5,S273Q,-0.2
6,L108Y,-1.74
7,V136C,-0.25
8,A6N,0.26
9,N95T,-0.1
10,L72W,0.28
11,M247K,-1.56
12,L198T,-2.13
13,R60G,-0.33
14,K237H,-0.04
15,S164V,-0.34
16,L64R,0.07
17,I70S,0.36
18,N304I,-0.42
19,L64T,0.11
20,S272N,0.08
21,E104G,-0.1
22,V18W,0.55
23,N316Q,0.13
